In PMC2665239 (Nucleic Acids Research, 2009):
Where two headings read alike, the source gives them in different places.

What was measured:
[1] = biological target: T1, His-tagged ttPOLXc domain (N-terminal domain of ttPolX, residues 1-379) (Thermus thermophilus HB8, UniProt Q5SJ64 1-379); test: SEC
T1 sequence (looked up): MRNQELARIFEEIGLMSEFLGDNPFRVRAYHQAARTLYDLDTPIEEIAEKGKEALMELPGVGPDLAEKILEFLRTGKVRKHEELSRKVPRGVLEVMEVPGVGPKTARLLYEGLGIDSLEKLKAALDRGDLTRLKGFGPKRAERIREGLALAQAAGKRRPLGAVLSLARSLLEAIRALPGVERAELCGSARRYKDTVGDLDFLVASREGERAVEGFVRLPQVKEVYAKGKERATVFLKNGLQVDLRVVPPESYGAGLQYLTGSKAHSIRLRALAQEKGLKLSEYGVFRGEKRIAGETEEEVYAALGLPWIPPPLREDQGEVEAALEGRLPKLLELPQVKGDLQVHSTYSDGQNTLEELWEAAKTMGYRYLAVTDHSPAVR

[2] = biological target: T2, ttPOLXc domain (Thermus thermophilus HB8, UniProt Q5SJ64 1-379); test: EMSA
T2 sequence: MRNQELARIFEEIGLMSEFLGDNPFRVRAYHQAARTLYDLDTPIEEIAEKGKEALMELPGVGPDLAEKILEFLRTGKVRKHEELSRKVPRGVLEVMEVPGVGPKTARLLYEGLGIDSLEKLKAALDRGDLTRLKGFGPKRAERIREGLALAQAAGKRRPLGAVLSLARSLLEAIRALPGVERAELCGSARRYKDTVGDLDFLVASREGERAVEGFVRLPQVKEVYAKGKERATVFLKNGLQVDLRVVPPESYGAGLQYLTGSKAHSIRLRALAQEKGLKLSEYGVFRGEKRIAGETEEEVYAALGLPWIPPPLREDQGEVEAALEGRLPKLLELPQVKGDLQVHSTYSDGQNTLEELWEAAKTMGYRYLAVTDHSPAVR

[3] = biological target: T3, ttPolX (Thermus thermophilus HB8, UniProt Q5SJ64 1-575); test: EMSA
T3 sequence: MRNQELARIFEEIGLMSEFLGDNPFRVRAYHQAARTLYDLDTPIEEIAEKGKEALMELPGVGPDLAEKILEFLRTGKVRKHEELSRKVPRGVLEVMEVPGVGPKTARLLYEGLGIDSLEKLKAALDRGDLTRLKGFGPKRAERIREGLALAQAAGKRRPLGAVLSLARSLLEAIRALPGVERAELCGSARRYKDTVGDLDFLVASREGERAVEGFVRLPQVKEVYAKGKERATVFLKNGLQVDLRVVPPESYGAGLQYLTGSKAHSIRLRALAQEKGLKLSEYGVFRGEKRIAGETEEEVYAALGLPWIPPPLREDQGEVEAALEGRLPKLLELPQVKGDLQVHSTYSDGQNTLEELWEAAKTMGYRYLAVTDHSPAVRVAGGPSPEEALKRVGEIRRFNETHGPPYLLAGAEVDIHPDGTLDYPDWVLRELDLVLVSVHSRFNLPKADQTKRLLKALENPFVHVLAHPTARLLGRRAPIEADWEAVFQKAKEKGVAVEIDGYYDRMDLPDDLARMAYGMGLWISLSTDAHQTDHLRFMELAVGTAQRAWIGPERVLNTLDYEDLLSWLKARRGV

[4] = biological target: T4, ttPHP domain (Thermus thermophilus HB8, UniProt Q5SJ64 339-575); test: EMSA
T4 sequence: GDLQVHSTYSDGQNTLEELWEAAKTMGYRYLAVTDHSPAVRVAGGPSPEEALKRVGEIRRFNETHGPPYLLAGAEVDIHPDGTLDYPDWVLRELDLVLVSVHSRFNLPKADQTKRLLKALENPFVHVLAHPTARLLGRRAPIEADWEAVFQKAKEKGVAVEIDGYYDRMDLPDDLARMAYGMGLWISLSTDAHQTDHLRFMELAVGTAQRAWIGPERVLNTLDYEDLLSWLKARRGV

[5] = biological target: T3, ttPolX; test: EMSA; remark: listed apart in the source
[6] = biological target: T2, ttPOLXc domain; test: EMSA; remark: listed apart in the source
[7] = biological target: T3, ttPolX; test: EMSA; remark: listed apart in the source
[8] = biological target: T2, ttPOLXc domain; test: EMSA; remark: listed apart in the source
[9] = biological target: T2, ttPOLXc domain; test: EMSA; remark: listed apart in the source
[10] = biological target: T3, ttPolX; test: EMSA; remark: listed apart in the source

B1: His-tagged ttPHP domain (C-terminal domain of ttPolX, residues 339-575) (domain or fragment, Thermus thermophilus HB8, UniProt Q5SJ64 339-575, looked up)
chain: GDLQVHSTYSDGQNTLEELWEAAKTMGYRYLAVTDHSPAVRVAGGPSPEEALKRVGEIRRFNETHGPPYLLAGAEVDIHPDGTLDYPDWVLRELDLVLVSVHSRFNLPKADQTKRLLKALENPFVHVLAHPTARLLGRRAPIEADWEAVFQKAKEKGVAVEIDGYYDRMDLPDDLARMAYGMGLWISLSTDAHQTDHLRFMELAVGTAQRAWIGPERVLNTLDYEDLLSWLKARRGV
B1 was tested. Which “stoichiometry N” value [1] did it give?
The value was 1 ttPOLXc:ttPHP molar ratio.

What does the source list for CACTGGCGGTCGTTCTATCGGGTGTTGCTTTAGTTGTCAT (ssDNA) [40T ssDNA]?
Kd [2]: 5.5 ± 1.7 µM; Kd [3]: 1.2 ± 0.7 µM; binding result [4]: no binding

B2: 21F/40T/18G 1-nt gapped DNA (dsDNA)
DNA 1: CACTGGCGGTCGTTCTATCGGGTGTTGCTTTAGTTGTCAT
DNA 2: ATGACAACTAAAGCAACACCC
DNA 3: ATAGAACGACCGCCAGTG
How did the Kd [5] turn out when B2 was run?
Its Kd is 0.39 ± 0.15 µM.

What about the Kd [6] of the same binder?
Its Kd is 6.5 ± 2.5 µM.

Does B2 bind [4]?
Result: no binding

B3: 40T/40C dsDNA (dsDNA)
DNA 1: CACTGGCGGTCGTTCTATCGGGTGTTGCTTTAGTTGTCAT
DNA 2: ATGACAACTAAAGCAACACCCGATAGAACGACCGCCAGTG
B3 was tested. Which Kd [7] did it give?
The Kd was 1.2 ± 0.7 µM.

What about the Kd [8] of the same binder?
Its Kd is 9.3 ± 3.8 µM.

Does B3 bind [4]?
Result: no binding

B4: 21F/40T/P18G 5'-phosphorylated 1-nt gapped DNA (dsDNA)
DNA 1: CACTGGCGGTCGTTCTATCGGGTGTTGCTTTAGTTGTCAT
DNA 2: ATGACAACTAAAGCAACACCC
DNA 3: ATAGAACGACCGCCAGTG
modifications: 5'-phosphate on 18G (P18G)
For B4, which Kd [9] is on record?
The Kd was 4.8 ± 2.5 µM.

What about the Kd [10] of the same binder?
The Kd was 0.3 ± 0.18 µM.

Does B4 bind [4]?
Result: no binding
